Test results: patent publication US20230065306A1 (INHIBRX, published 2023)
Numbering of substitutions follows the chain as printed.

T1: CD123-his
T1 construct: also called histidine tagged human CD123; His-tagged CD123 ECD
T1 extracellular domain with C-terminal His tag: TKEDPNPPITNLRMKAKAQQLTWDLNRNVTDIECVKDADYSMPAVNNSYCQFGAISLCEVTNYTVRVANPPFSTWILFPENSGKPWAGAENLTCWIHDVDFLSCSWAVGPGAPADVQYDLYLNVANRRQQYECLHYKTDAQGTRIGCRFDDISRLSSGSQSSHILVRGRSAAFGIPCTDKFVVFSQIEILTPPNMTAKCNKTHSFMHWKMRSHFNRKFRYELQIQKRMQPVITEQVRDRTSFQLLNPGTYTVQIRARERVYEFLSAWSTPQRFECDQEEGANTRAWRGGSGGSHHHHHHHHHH

B1: hzA5v2-IgG1 (Fc fusion)
chain: EVQLVESGGGEVQPGGSLRLSCAASGGTFSSYGMAWFRQAPGKEREWVASNSWIAGSTYYAESVKGRFTISRDNAKNTVYLQMSSLRAEDTAVYYCAADLLATADDEYDYWGQGTLVTVDKTHTCPPCPAPGGPSVFLFPPKPKDTLMISRTPEVTCVVVDVSHEDPEVKFNWYVDGVEVHNAKTKPREEQYNSTYRVVSVLTVLHQDWLNGKEYKCKVSNKALPAPIEKTISKAKGQPREPQVYTLPPSRDELTKNQVSLTCLVKGFYPSDIAVEWESNGQPENNYKTTPPVLDSDGSFFLYSKLTVDKSRWQQGNVFSCSVMHEALHNHYTQKSLSLSPGK
notes: also called hzA5v2 sdAb
B2: hz1B11v28-IgG1 (Fc fusion)
chain: EVQLVESGGGEVQPGGSLRLSCAASGRTQSAVAMGWFRQAPGKDRDFVAAIRWSGGNTYYAESVEGRFTISRDNAKNTVYLQMSSLRAEDTAVYSCAISLNHFGLYDYWGQGTLVTVDKTHTCPPCPAPGGPSVFLFPPKPKDTLMISRTPEVTCVVVDVSHEDPEVKFNWYVDGVEVHNAKTKPREEQYNSTYRVVSVLTVLHQDWLNGKEYKCKVSNKALPAPIEKTISKAKGQPREPQVYTLPPSRDELTKNQVSLTCLVKGFYPSDIAVEWESNGQPENNYKTTPPVLDSDGSFFLYSKLTVDKSRWQQGNVFSCSVMHEALHNHYTQKSLSLSPGK
notes: also called hz1B11v28 sdAb
B3: hzF3v22-IgG1 (Fc fusion)
chain: EVQLVESGGGLVQPGGSLRLSCAASGRAINAYNMGWFRQAPGKGREFVSAINWNAARTYYAESVKGRFTISRDNAKNTLYLQMSSLRAEDTAVYYCAASGRWSAAVPSGEDQYNFWGQGTLVTVDKTHTCPPCPAPGGPSVFLFPPKPKDTLMISRTPEVTCVVVDVSHEDPEVKFNWYVDGVEVHNAKTKPREEQYNSTYRVVSVLTVLHQDWLNGKEYKCKVSNKALPAPIEKTISKAKGQPREPQVYTLPPSRDELTKNQVSLTCLVKGFYPSDIAVEWESNGQPENNYKTTPPVLDSDGSFFLYSKLTVDKSRWQQGNVFSCSVMHEALHNHYTQKSLSLSPGK
notes: also called hzF3v22 sdAb
B4: hz1F5v1-IgG1 (Fc fusion)
chain: EVQLVESGGGEVQPGGSLRLSCAASGRAINMYAMGWFRQAPGKEREFVAAINWNGAYTQYAESVKGRFTISRDNAKNTLYLQMSSLRAEDTAVYYCSADADYNTYVSPNKRVSYWGQGTLVTVDKTHTCPPCPAPGGPSVFLFPPKPKDTLMISRTPEVTCVVVDVSHEDPEVKFNWYVDGVEVHNAKTKPREEQYNSTYRVVSVLTVLHQDWLNGKEYKCKVSNKALPAPIEKTISKAKGQPREPQVYTLPPSRDELTKNQVSLTCLVKGFYPSDIAVEWESNGQPENNYKTTPPVLDSDGSFFLYSKLTVDKSRWQQGNVFSCSVMHEALHNHYTQKSLSLSPGK
B5: A5-IgG1 (Fc fusion)
chain: B1 chain with E6Q, E11L, P14A, A24V, A40P, E62G, S84N, R87K, A88P, L116Q
notes: No linker between VHH and Fc is stated; also called sdAb A5
B6: 4F2-IgG1 (Fc fusion)
chain: EVQLVQSGGGLVQAGGSLRLSCAASGRTVSNYPMAWFRQAPGKEREFVAHISWSGITSILNSVNDRFTISRDNAKNTIYLQMNSLKPEDTAVYYCAAAQRPTAGPKGPFGYWGQGTQVTVDKTHTCPPCPAPGGPSVFLFPPKPKDTLMISRTPEVTCVVVDVSHEDPEVKFNWYVDGVEVHNAKTKPREEQYNSTYRVVSVLTVLHQDWLNGKEYKCKVSNKALPAPIEKTISKAKGQPREPQVYTLPPSRDELTKNQVSLTCLVKGFYPSDIAVEWESNGQPENNYKTTPPVLDSDGSFFLYSKLTVDKSRWQQGNVFSCSVMHEALHNHYTQKSLSLSPGK
B7: F3-IgG1 (Fc fusion)
chain: EVQLVQSGGGLVQAGGSLRLSCRASGRAINSYNMGWFRQAPGKEREFVSAINWNGARTYYQDALKGRFAISRDNARNTMYLQMNNLKPEDTAVYYCAAAGRWSAAVPSGEDQYNFWGQGTQVTVDKTHTCPPCPAPGGPSVFLFPPKPKDTLMISRTPEVTCVVVDVSHEDPEVKFNWYVDGVEVHNAKTKPREEQYNSTYRVVSVLTVLHQDWLNGKEYKCKVSNKALPAPIEKTISKAKGQPREPQVYTLPPSRDELTKNQVSLTCLVKGFYPSDIAVEWESNGQPENNYKTTPPVLDSDGSFFLYSKLTVDKSRWQQGNVFSCSVMHEALHNHYTQKSLSLSPGK
notes: also called sdAb F3
B8: hzF3v26-IgG1 (Fc fusion)
chain: B3 chain with A23R
B9: 1F5-IgG1 (Fc fusion)
chain: QVQLVQSGGGLVQAGGSLTVSCTASGRAINMYAMGWFRQAPGKEREFVAAINWNGAYTQYADSVKGRFTISRDNAKNTMYLQMNSLKPEDTAQYYCSADADYNTYVSPNKRVSYWGQGTQVTVDKTHTCPPCPAPGGPSVFLFPPKPKDTLMISRTPEVTCVVVDVSHEDPEVKFNWYVDGVEVHNAKTKPREEQYNSTYRVVSVLTVLHQDWLNGKEYKCKVSNKALPAPIEKTISKAKGQPREPQVYTLPPSRDELTKNQVSLTCLVKGFYPSDIAVEWESNGQPENNYKTTPPVLDSDGSFFLYSKLTVDKSRWQQGNVFSCSVMHEALHNHYTQKSLSLSPGK
B10: hz1F5v2-IgG1 (Fc fusion)
chain: B4 chain with A23T
B11: 1B11-IgG1 (Fc fusion)
chain: QVQLVQSGGGSVQAGGSLRLSCAAAGRTQSAVAMGWFRQDPGKDRDFVAAIRWSGGNTYYADSAEGRFTISRDNAKNTVYLQMDSLKPEDTAVYSCAISMNHFGMYDYWGQGTQVTVDKTHTCPPCPAPGGPSVFLFPPKPKDTLMISRTPEVTCVVVDVSHEDPEVKFNWYVDGVEVHNAKTKPREEQYNSTYRVVSVLTVLHQDWLNGKEYKCKVSNKALPAPIEKTISKAKGQPREPQVYTLPPSRDELTKNQVSLTCLVKGFYPSDIAVEWESNGQPENNYKTTPPVLDSDGSFFLYSKLTVDKSRWQQGNVFSCSVMHEALHNHYTQKSLSLSPGK

Target: T1, CD123-his
Experiment: BLI, CD123-his captured on Ni-NTA sensors, first sdAb 100 nM
Method: (§1) The epitopes of single domain antibodies (sdAbs) that comprise VHH domains that bind CD123 were compared using Bio-Layer Interferometry. 5 ug/mL of histidine tagged human CD123 was immobilized on Nickel-nitrilotriacetic acid (Ni-NTA) coated capture sensors. 100 nM of one sdAb was then loaded onto the CD123 antigen and allowed to come to equilibrium. The sensors were then transferred into 100 nM of a second sdAb.

Binder | binding result
B1 | binds
B2 | binds

Target: T1, CD123-his
Experiment: BLI, CD123-his on Ni-NTA sensors preloaded with hzA5v2, second sdAb 100 nM
Method: as §1

Binder | binding result
B3 | binds
B4 | binds

Target: T2, human CD123 (full-length, on cells) (human, UniProt P26951 19-378)
T2 construct: also called CD123-FL; interleukin-3 receptor alpha chain
Experiment: flow cytometry on HEK 293 cells transfected with full-length CD123; apparent Kd, one-site fit
Method: (§2) Binding of sdAbs to human CD123 was assessed by flow cytometry. […] HEK 293 cells were transiently transfected with a plasmid encoding full-length CD123 (UniProt Accession No. P26951-1; mature form, SEQ ID NO: 1) and used as the positive cell line in FIGS. 2A to 2M, and untransfected HEK 293 cells were used as CD123-negative cells. In FIG. 2N, Molm-13 cells, which express CD123, were used as the positive cell line. Each cell type was plated at 30,000 cells/well in FACS buffer (PBS 1% BSA, 0.1% NaN₃ pH 7.4) on a 96-well round-bottom plate. The sdAbs were diluted in FACS buffer in a 3-fold, 11 point serial dilution. The sdAb dilutions were added to the plated cells, and assay plates were incubated for 30 minutes at 4° C. After washing twice in 150 μL of FACS buffer, cells in each well were resuspended in 100 μL of 1:2000 Alexa Fluor 647-conjugated Anti-Human IgG secondary diluted in FACS buffer and incubated at 4° C. for 30 minutes. The cells were washed twice more, then bound antibody was detected by flow cytometry.
(§3) Flow cytometric analysis was performed on an Intellicyte iQue Plus and fluorescence was plotted as median fluorescence intensity. The apparent affinity (Kd, nM) was determined using one site binding non-linear regression in PRISM graph software.

Binder | Kd [nM]
B5 | 0.12
B1 | 0.11
B2 | 0.96
B6 | 1.37
B7 | 0.53
B3 | 0.59
B8 | 0.93
B9 | 0.97
B4 | 0.58
B10 | 0.92
B11 | 0.52

Target: T2, human CD123 (full-length, on cells)
Experiment: flow cytometry, HEK 293 cells transfected with full-length CD123 (CD123-FL); Median RL-1H
Method: as §2, §3
Target sequence in this assay (P26951 19-378): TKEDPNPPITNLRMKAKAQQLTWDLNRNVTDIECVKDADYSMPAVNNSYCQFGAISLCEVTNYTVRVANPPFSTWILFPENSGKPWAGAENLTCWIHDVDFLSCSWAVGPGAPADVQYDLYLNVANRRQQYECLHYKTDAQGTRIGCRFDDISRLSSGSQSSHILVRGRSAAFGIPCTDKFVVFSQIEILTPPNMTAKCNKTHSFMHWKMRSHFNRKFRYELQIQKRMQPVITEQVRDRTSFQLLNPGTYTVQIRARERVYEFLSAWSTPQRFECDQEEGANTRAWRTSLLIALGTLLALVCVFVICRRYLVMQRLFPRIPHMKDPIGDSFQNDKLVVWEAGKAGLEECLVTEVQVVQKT

Binder | EC50 (read off the curve) [nM]
B2 | ~0.9
B6 | 1 to 2
B7 | ~0.6
B3 | ~0.7
B8 | ~1
B9 | ~0.9
B4 | ~0.6
B10 | ~1
B11 | ~0.6

Target: T2, human CD123 (full-length, on cells)
Experiment: flow cytometry blocking assay, sdAb titrated on CD123-expressing HEK-293 cells with a fixed amount of IL-3-mFc
Method: (§4) Certain CD123-binding sdAbs were tested for the ability to block CD123 binding to IL-3 by titrating the sdAb onto CD123 expressing HEK-293 cells in the presence of a fixed amount of recombinant IL-3-mFc. Bound IL-3 was detected by flow cytometry using fluorophore conjugated anti-mouse IgG specific secondary antibody.

Binder | IC50 (read off the curve) [nM]
B5 | 0.3 to 0.8
B7 | ~1

Target: T2, human CD123 (full-length, on cells)
Experiment: as above
Remark: another data set of the same source
Method: as §4

Binder | IC50 (read off the curve) [nM]
B4 | ~1
